Consider 9 molecules from article PMC6061855 (Nucleic Acids Research, 2018).

The labels stand for the following.
B7: Full-length E. coli RppH (RNA pyrophosphohydrolase) (enzyme, UniProt P0A776 1-176, looked up)
chain: MIDDDGYRPNVGIVICNRQGQVMWARRFGQHSWQFPQGGINPGESAEQAMYRELFEEVGLSRKDVRILASTRNWLRYKLPKRLVRWDTKPVCIGQKQKWFLLQLVSGDAEINMQTSSTPEFDGWRWVSYWYPVRQVVSFKRDVYRRVMKEFASVVMSLQENTPKPQNASAYRRKRG

The target in data set [1] is His6-SUMO-DapF (E. coli DapF with uncleaved N-terminal hexahistidine and SUMO tags) (E. coli) (UniProt P0A6K1). Put plainly: BLI.
The target in data set [2] is EcRppH(1–158)AA, truncated variant of E. coli RppH (E. coli) (UniProt P0A776). The data set is described as follows: BLI.
For data set [3], the target named is T1, RppH^R134A (E. coli RppH mutant), His6-SUMO-tagged (E. coli, UniProt P0A776 1-176, R134A).
T1 sequence (looked up): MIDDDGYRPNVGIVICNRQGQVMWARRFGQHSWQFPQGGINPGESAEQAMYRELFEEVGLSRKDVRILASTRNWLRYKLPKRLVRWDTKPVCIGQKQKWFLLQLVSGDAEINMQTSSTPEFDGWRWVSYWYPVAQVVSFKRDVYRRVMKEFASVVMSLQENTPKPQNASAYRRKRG
Put plainly: BLI.

Data set [4] deals with B7. Put plainly: BLI.
The target of data set [5] is T2, His6-SUMO-tagged E. coli RppH (E. coli, UniProt P0A776 1-176).
T2 sequence (looked up): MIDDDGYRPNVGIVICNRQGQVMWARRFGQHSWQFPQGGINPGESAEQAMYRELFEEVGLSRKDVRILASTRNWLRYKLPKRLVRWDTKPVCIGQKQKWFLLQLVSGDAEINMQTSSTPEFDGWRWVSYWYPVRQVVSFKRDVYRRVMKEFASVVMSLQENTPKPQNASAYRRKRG
Put plainly: BLI.

Data set [6] has as its target T3, His6-SUMO-DapF (E. coli DapF with uncleaved N-terminal hexahistidine and SUMO tags) (E. coli, UniProt P0A6K1 1-274).
T3 sequence: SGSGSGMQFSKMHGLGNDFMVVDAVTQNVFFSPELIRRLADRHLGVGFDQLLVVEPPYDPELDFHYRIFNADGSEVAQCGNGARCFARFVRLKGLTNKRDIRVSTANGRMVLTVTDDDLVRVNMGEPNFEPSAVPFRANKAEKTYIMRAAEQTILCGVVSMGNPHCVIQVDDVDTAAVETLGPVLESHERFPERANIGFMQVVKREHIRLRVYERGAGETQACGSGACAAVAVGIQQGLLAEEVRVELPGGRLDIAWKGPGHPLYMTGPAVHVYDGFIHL
Put plainly: cross-linking.

Data set [7] deals with T4, DapFm (E. coli DapF with Y268A and R36A mutations) (E. coli, UniProt P0A6K1 1-274, Y268A | R36A).
T4 sequence: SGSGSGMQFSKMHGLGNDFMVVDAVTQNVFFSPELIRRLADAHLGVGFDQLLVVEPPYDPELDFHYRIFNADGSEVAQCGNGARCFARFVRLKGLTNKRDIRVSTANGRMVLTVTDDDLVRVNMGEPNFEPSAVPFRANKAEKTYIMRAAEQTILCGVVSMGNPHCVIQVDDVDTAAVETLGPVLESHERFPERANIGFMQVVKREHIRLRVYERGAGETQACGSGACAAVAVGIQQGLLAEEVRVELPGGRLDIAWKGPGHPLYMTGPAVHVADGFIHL

For data set [8], the target named is T4, DapFm (E. coli DapF with Y268A and R36A …). Put plainly: BLI.
The target in another data set is T5, RppHt;DapFm (Escherichia coli;Escherichia coli, UniProt P0A776;P0A6K1 1-158;1-274, |R36A;Y268A).
T5 sequence 1: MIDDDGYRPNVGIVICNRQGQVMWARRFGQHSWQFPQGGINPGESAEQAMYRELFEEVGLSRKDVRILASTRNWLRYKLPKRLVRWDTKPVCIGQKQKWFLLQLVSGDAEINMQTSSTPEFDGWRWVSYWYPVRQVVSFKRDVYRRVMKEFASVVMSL
T5 sequence 2: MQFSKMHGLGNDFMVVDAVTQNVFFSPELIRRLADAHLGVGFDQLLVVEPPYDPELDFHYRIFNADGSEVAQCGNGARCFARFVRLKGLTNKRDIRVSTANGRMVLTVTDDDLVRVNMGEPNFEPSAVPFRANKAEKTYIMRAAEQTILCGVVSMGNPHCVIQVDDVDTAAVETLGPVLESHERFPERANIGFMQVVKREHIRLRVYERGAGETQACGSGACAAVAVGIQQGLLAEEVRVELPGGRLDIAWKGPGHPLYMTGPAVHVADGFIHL
The data set is described as follows: X-ray crystallography.

Turning to “RppH^W130A,R145A (E. coli RppH double mutant) (from UniProt P0A776 1-176) (enzyme)”, the Kd in data set [1] turned out to be 1900 nM.

B1: DapFm (E. coli DapF with Y268A and R36A mutations) (enzyme)
chain: SGSGSGMQFSKMHGLGNDFMVVDAVTQNVFFSPELIRRLADAHLGVGFDQLLVVEPPYDPELDFHYRIFNADGSEVAQCGNGARCFARFVRLKGLTNKRDIRVSTANGRMVLTVTDDDLVRVNMGEPNFEPSAVPFRANKAEKTYIMRAAEQTILCGVVSMGNPHCVIQVDDVDTAAVETLGPVLESHERFPERANIGFMQVVKREHIRLRVYERGAGETQACGSGACAAVAVGIQQGLLAEEVRVELPGGRLDIAWKGPGHPLYMTGPAVHVADGFIHL
In data set [2], B1 displayed a Kd of 6 nM. In other words, the single-digit nanomolar range.

B2: E. coli DapF (diaminopimelate epimerase) bearing six additional residues (SGSGSG) at the amino terminus (enzyme)
chain: SGSGSGMQFSKMHGLGNDFMVVDAVTQNVFFSPELIRRLADRHLGVGFDQLLVVEPPYDPELDFHYRIFNADGSEVAQCGNGARCFARFVRLKGLTNKRDIRVSTANGRMVLTVTDDDLVRVNMGEPNFEPSAVPFRANKAEKTYIMRAAEQTILCGVVSMGNPHCVIQVDDVDTAAVETLGPVLESHERFPERANIGFMQVVKREHIRLRVYERGAGETQACGSGACAAVAVGIQQGLLAEEVRVELPGGRLDIAWKGPGHPLYMTGPAVHVYDGFIHL
As for B2, the “fold reduction of the binding affinity against wild-type RppH” value in data set [3] was 2 fold.

B3: DapF V19S-F58S (E. coli DapF double mutant) (enzyme)
chain: SGSGSGMQFSKMHGLGNDFMVVDASTQNVFFSPELIRRLADRHLGVGFDQLLVVEPPYDPELDSHYRIFNADGSEVAQCGNGARCFARFVRLKGLTNKRDIRVSTANGRMVLTVTDDDLVRVNMGEPNFEPSAVPFRANKAEKTYIMRAAEQTILCGVVSMGNPHCVIQVDDVDTAAVETLGPVLESHERFPERANIGFMQVVKREHIRLRVYERGAGETQACGSGACAAVAVGIQQGLLAEEVRVELPGGRLDIAWKGPGHPLYMTGPAVHVYDGFIHL
With B3, the “fold reduction of the binding affinity against wild-type DapF” value (from here on “fold reduction … against wild-type DapF”) in data set [4] amounted to 59 fold.

B4: DapF V19S-L89S (E. coli DapF double mutant) (enzyme)
chain: SGSGSGMQFSKMHGLGNDFMVVDASTQNVFFSPELIRRLADRHLGVGFDQLLVVEPPYDPELDFHYRIFNADGSEVAQCGNGARCFARFVRLKGSTNKRDIRVSTANGRMVLTVTDDDLVRVNMGEPNFEPSAVPFRANKAEKTYIMRAAEQTILCGVVSMGNPHCVIQVDDVDTAAVETLGPVLESHERFPERANIGFMQVVKREHIRLRVYERGAGETQACGSGACAAVAVGIQQGLLAEEVRVELPGGRLDIAWKGPGHPLYMTGPAVHVYDGFIHL
Turning to B4, in data set [4], the “fold reduction … against wild-type DapF” value is 77 fold.

B5: DapF^V19S,F58S,L89S (E. coli DapF triple mutant) (enzyme)
chain: SGSGSGMQFSKMHGLGNDFMVVDASTQNVFFSPELIRRLADRHLGVGFDQLLVVEPPYDPELDSHYRIFNADGSEVAQCGNGARCFARFVRLKGSTNKRDIRVSTANGRMVLTVTDDDLVRVNMGEPNFEPSAVPFRANKAEKTYIMRAAEQTILCGVVSMGNPHCVIQVDDVDTAAVETLGPVLESHERFPERANIGFMQVVKREHIRLRVYERGAGETQACGSGACAAVAVGIQQGLLAEEVRVELPGGRLDIAWKGPGHPLYMTGPAVHVYDGFIHL
On to B5, for which the “fold decrease of binding against wild-type DapF” value in data set [5] is ~5800 fold.

B6: DapF F58S-L89S (E. coli DapF double mutant) (enzyme)
chain: SGSGSGMQFSKMHGLGNDFMVVDAVTQNVFFSPELIRRLADRHLGVGFDQLLVVEPPYDPELDSHYRIFNADGSEVAQCGNGARCFARFVRLKGSTNKRDIRVSTANGRMVLTVTDDDLVRVNMGEPNFEPSAVPFRANKAEKTYIMRAAEQTILCGVVSMGNPHCVIQVDDVDTAAVETLGPVLESHERFPERANIGFMQVVKREHIRLRVYERGAGETQACGSGACAAVAVGIQQGLLAEEVRVELPGGRLDIAWKGPGHPLYMTGPAVHVYDGFIHL
Consider B6, for which the “fold reduction … against wild-type DapF” value in data set [4] was determined as 290 fold. With B7, the “stoichiometry N” value is 1 RppH per DapF (printed as 2:2) in [6] and 1 RppH per DapFm (printed as 1:1) in data set [7]. In data set [8], this molecule registered a Kd of 7.5 nM.

B8: ppcpAGU (ssRNA)
RNA: AGU
modifications: 5' triphosphate analog ppcpA (non-natural bridging group, from ppcpA starter nucleotide)
Take B8: the binding result with RppHt;DapFm is recorded as “binds”.
